Assay [1] has as its target p150^Glued CAP-gly domain (residues 19-107) G59A (UniProt Q14203-1 19-107, G59A). As to the kind of experiment: SEC.
Assay [2] has as its target p150^Glued CAP-gly domain, wildtype (residues 19-107) (UniProt Q14203-1 19-107). As to the kind of experiment: SEC. A general note: Size exclusion chromatography separates by hydrodynamic size, large species first.

Sequence of p150^Glued CAP-gly domain, wildtype (residues 19-107) (Q14203 19-107): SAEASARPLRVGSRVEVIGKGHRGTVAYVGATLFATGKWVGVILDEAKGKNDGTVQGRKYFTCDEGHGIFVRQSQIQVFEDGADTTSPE
Sequence of p150^Glued CAP-gly domain (residues 19-107) G59A (Q14203 19-107 G59A): as the sequence (Q14203 19-107) above, with G41A counted along it

B1: EB1 fragment (residues 194 to 268) (domain or fragment, UniProt Q15691 194-268, looked up)
chain: AELMQQVNVLKLTVEDLEKERDFYFGKLRNIELICQENEGENDPVLQRIVDILYATDEGFVIPDEGGPQEEQEEY
Take B1: the binding result in assay [1] and in assay [2] was “binds” each time.

(Values after PMC2938955 (Biochemistry, 2010).)
